From publication PMC9328131 come the findings set out here.

Holding throughout (experiment): EMSA
The target in data set [1] is T1, Ecm16 (Streptomyces lasalocidi, UniProt Q0X0A9 1-792).
T1 sequence: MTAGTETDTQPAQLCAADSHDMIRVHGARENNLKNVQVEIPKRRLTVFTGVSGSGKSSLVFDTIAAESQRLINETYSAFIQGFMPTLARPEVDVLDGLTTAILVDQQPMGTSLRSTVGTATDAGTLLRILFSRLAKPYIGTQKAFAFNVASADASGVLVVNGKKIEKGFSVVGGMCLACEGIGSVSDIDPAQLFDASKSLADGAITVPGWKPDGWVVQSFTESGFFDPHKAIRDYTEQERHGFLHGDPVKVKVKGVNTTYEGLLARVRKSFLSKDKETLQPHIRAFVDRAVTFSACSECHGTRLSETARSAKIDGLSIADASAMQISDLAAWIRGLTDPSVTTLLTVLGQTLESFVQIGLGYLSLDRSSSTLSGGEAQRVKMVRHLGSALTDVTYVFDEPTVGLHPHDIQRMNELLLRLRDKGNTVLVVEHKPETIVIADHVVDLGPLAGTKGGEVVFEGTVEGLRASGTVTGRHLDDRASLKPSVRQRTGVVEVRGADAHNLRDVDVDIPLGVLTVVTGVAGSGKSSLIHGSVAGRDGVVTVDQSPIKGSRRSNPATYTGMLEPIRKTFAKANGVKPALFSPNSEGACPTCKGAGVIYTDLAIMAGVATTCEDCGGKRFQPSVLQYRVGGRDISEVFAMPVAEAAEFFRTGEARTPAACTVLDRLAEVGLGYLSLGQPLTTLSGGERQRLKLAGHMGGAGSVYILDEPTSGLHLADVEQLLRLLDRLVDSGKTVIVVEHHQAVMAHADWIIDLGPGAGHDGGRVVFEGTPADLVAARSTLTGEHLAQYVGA

Data set [2] has as its target T1, Ecm16. The source holds these as a separate data set.
Data set [3] addresses T1, Ecm16. This is another data set of the same source.

Like-named read-outs stand apart in the source and are kept apart here.

B1: 32-mer dsDNA (dsDNA)
DNA 1: AGTGATCAGTGGTTACGTAACCACTGATCACT
DNA 2: B1 DNA 1
In general, Kd refers to the constant that tells how readily two partners part at equilibrium. A lower Kd goes with higher affinity. As to B1, the equilibrium dissociation constant (Kd) with Ecm16 [1] came out at 34.8 nM; with Ecm16 [2] it was 20.6 nM.
With AGTGATCAGTGGTTACGTAACCACTGATCACT (ssDNA) [32-mer ssDNA], in the data set with Ecm16 [3], the Kd is 39.6 nM.
